How the values were obtained:
VS-HiBiT peptide = experiment: Complementation affinity with VS-HiBiT peptide; format: binding; settings: versus HaloTag-LgBiT configuration
From the text: Such configuration offers a modality agnostic approach for proximity between the photocatalytic complex and protein of interest genetically fused to HiBiT as well as greater spatial control over photocatalytic reactivity. First, the properties of the bioluminescent complementation reporter comprising VS-HiBiT peptide and either HaloTag-LgBiT or LgBiT-HaloTag were compared (FIG. 23 A-C). To determine complementation affinity, equal volumes of VS-HiBiT peptide serially diluted in TBS+0.01% BSA to final concentrations of 200-0 nM and HaloTag-LgBiT or LgBiT-HaloTag diluted in TBS+0.01% BSA to a final concentration of 0.2 nM were combined in wells of a white 96-well plate and mixed for 30 minutes. Following a 3-minutes treatment with either 10× furimazine or fluorofurimazine at a final concentration 20 M, bioluminescence was measured on a GloMax® Discover plate reader (Promega), and binding affinity (Kd) was derived from a saturation binding curve of luminescence against VS-HiBiT concentration (FIG. 23A). […] Following a 3-minutes treatment with either 10× furimazine or fluorofurimazine at a final concentration 20 M, raw luminescence (Total RLU; FIG. 23B) or filtered luminesces of donor (e.g., 450 nm/8 nm BP) and acceptor (600 nm LP) emissions were measured on a GloMax® Discover plate reader (Promega). […]

[1] = Brightness and BRET efficiency to a bound HaloTag TMR-fluorescent ligand; format: biochemical; settings: versus HaloTag-LgBiT configuration, complemented with VS-HiBiT
From the text: The efficiency of bioluminescence-triggered catalyst activation depends on the emission intensity of the luciferase energy donor, spectral overlap between luciferase emission and catalyst excitation, proximity between the luciferase and catalyst, and capacity of the complex to adopt a conformation favorable for efficient energy transfer between the two. First, the influence of the NanoLuc-HaloTag fusion orientation on the efficiency of bioluminescence resonance energy transfer (BRET) to a bound HaloTag TMR-fluorescent ligand was tested. To this end, fusions either untethered or tethered to a HaloTag TMR-fluorescent ligand were diluted in TBS+0.01% BSA to a final concentration of 6.6 nM and then treated with 10× fluorofurimazine at a final concentration of 20 M. Following 3 minutes incubation, raw luminescence (Total RLU) or filtered luminesces for donor (e.g., 450 nm/8 nm BP) and acceptor (600 nm LP) emissions, respectively were measured on a GloMax® Discover plate reader (Promega). BRET ratios were further calculated for each sample by dividing the acceptor emission value by its donor emission value. While both orientations delivered equivalent brightness one of them NanoLuc-HaloTag provided greater BRET efficiency (FIG. 16A), which is likely due to greater proximity between NanoLuc's substrate binding site and the bound fluorescent ligand. […]

B1: VS-HiBiT/LgBiT-HaloTag: bioluminescent complementation reporter comprising VS-HiBiT peptide and LgBiT-HaloTag (protein)
chain: MVFTLEDFVGDWEQTAAYNLDQVLEQGGVSSLLQNLAVSVTPIQRIVRSGENALKIDIHVIIPYEGLSADQMAQIEEVFKVVYPVDDHHFKVILPYGTLVIDGVTPNMLNYFGRPYEGIAVFDGKKITVTGTLWNGNKIIDERLITPDGSMLFRVTINSMAEIGTGFPFDPHYVEVLGERMHYVDVGPRDGTPVLFLHGNPTSSYVWRNIIPHVAPTHRCIAPDLIGMGKSDKPDLGYFFDDHVRFMDAFIEALGLEEVVLVIHDWGSALGFHWAKRNPERVKGIAFMEFIRPIPTWDEWPEFARETFQAFRTTDVGRKLIIDQNVFIEGTLPMGVVRPLTEVEMDHYREPFLNPVDREPLWRFPNELPIAGEPANIVALVEEYMDWLHQSPVPKLLFWGTPGVLIPPAEAARLAKSLPNCKAVDIGPGLNLLQEDNPDLIGSEIARWLSTLEISG
modifications: left off: large carriers
With B1 the “complementation affinity, fold higher” value (VS-HiBiT peptide) was 3 fold and the “BRET efficiency, fold greater” value [1] was 1.5-2 fold.
